Where a chain is given by its changes, count along the chain named.
Legend:
[1] = molecular target: T1, cynomolgus PSMA on CHO cells (cynomolgus, UniProt A0A2K5VNZ0 1-750); assay: FMAT screen, Cyno PSMA CHO cells
T1 construct: whole, on cells; also called cynoPSMA CHO; Cyno PSMA CHO

[2] = molecular target: T1, cynomolgus PSMA on CHO cells; assay: cell-based or functional assay
[3] = molecular target: T2, recombinant human PSMA (R&D, cat. no. 4234-ZN) (human, UniProt Q04609 44-750); assay: HTRF binding assay with 3 nM biotinylated PSMA; VH 7 days in cynomolgus serum at 37 C
T2 construct: Bought protein; also called rhPSMA; Recombinant PMSA

[4] = molecular target: T1, cynomolgus PSMA on CHO cells; assay: cell-based or functional assay; remark: listed apart in the source
[5] = molecular target: T3, human PSMA on cells (CHO human PSMA, DU145 PSMA, LNCaP) (human, UniProt Q04609 1-750); assay: cell-based or functional assay
[6] = molecular target: T3, human PSMA on cells (CHO human PSMA, …); assay: FMAT Mirrorball direct cell binding of purified His-tagged VH on CHO cells expressing human PSMA [upper left panel huPSMA CHO]
[7] = molecular target: T3, human PSMA on cells (CHO human PSMA, …); assay: FMAT Mirrorball direct cell binding of purified His-tagged VH on LNCaP cells [panel LNCap]
[8] = molecular target: T3, human PSMA on cells (CHO human PSMA, …); assay: FMAT Mirrorball direct cell binding of purified His-tagged VH on DU145 cells expressing PSMA [panel Du145 PSMA]

T3 sequence (Q04609 whole entry): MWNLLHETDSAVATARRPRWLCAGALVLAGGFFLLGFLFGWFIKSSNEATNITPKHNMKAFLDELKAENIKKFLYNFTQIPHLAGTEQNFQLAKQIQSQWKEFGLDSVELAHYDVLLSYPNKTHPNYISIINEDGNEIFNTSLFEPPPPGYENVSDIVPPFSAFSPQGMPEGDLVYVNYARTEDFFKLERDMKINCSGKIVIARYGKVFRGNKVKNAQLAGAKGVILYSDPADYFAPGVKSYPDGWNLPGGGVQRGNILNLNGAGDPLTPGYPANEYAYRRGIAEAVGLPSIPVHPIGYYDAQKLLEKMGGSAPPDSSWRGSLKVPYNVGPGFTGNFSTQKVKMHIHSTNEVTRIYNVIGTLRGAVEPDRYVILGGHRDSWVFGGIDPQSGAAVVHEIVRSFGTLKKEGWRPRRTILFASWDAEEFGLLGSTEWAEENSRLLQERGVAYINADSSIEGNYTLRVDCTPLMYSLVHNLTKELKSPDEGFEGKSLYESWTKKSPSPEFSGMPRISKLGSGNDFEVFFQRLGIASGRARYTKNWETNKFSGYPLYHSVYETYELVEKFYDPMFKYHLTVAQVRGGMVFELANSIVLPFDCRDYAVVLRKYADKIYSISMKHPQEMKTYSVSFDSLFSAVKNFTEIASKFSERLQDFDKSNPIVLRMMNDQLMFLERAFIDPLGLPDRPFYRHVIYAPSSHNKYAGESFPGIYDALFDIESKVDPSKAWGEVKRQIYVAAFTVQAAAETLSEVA
T2 sequence (Q04609 44-750 limits assumed): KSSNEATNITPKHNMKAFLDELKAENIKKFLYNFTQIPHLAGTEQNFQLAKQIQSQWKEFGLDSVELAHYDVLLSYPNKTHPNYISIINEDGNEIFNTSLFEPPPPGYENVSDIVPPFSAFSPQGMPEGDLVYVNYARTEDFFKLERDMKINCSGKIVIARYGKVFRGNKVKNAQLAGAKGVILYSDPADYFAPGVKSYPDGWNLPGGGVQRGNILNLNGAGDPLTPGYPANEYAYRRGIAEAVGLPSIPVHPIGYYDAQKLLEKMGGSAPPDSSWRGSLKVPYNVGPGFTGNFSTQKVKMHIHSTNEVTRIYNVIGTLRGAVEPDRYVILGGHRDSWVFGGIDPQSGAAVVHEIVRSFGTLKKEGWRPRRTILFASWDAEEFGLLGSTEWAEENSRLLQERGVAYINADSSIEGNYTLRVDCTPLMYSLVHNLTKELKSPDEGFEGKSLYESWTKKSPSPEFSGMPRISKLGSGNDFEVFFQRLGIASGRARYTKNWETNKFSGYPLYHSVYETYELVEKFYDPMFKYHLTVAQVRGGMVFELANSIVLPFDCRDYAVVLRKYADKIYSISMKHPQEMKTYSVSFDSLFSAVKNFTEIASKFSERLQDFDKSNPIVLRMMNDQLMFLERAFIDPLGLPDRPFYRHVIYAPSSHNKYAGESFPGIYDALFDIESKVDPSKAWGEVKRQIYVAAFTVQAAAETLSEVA

B1: single VH domain antibody 13.1 (VHH)
VHH: EVQLVESGGGSVQPGGSLRLSCAASGFTFSDYWMTWVRQVPGKGLEWVANIKQDGSEKYYVDSVKGRFTISRDNAKNSLYLQMNSLRAEDTAVYYCARDRGGAVALYHNGMDMGGQGTTVTVSS
notes: human single VH domain; C-terminal His(-myc) tag not included; also called family 13
binding result [1]: no binding

B2: single VH domain antibody 5.1 (VHH)
VHH: QVQLVESGGGVVQPGRSLRLSCAASGFTFNNYGMHWVRQAPGKGLEWVAIISYDGNTKYYTDSVKGRFTISRDNSKNTLYLQMNSLRVEDTAVYYCAKGLWPSDVWGQGTTVTVSS
EC50 (read off the curve), pHrodo Green internalisation [2]: ~2e-09 M

B3: 3.2 (VHH)
VHH: EVQLVESGGGVVQPGRSLRLSCAASGFPLISYGMNWVRQAPGKGLDWVAFISYDGSNKYYADSVKGRFTISKDNSKNTLYLQMNSLRAEDTAVYYCAKDRIVGARVPDAFDIWGQGTMVTVSS
EC50 (read off the curve), pHrodo Green internalisation [2]: ~1e-09 M

B4: single VH domain antibody 3.1 (VHH)
VHH: B3 VHH with N35H, D46E, I51M, S52T, K58R, K72R, A88D, V93L, K98R, A104G
notes: human single VH domain; C-terminal His(-myc) tag not included; also called VH3.1; family 3 parent
EC50 (read off the curve) [3]: ~1 nM

B5: single VH domain antibody 2.1 (VHH)
VHH: EVQLVESGGGVVQPGRSLRLSCAASGFSFSGYGMHWVRQAPGKGLEWVAYISYDGSNKYYADSVKGRFTISRDNSKNTLYLQMNSLRAEDTAVYYCAKDPAWGLRLGESSSYDFDIWGQGTMVTVSS
IC50 (read off the curve), His-ZAP killing [4]: ~0.1 nM
IC50 (read off the curve), His-ZAP killing [5]: ~0.04 nM

B6: single VH domain antibody 2.12 (VHH)
VHH: B5 VHH with G55K, S63K
notes: variant of 2.1; human single VH domain; C-terminal His(-myc) tag not included
EC50 (read off the curve) [6]: ~0.1 nM
EC50 (read off the curve) [7]: ~0.03 nM
EC50 (read off the curve) [8]: ~0.2 nM

B7: single VH domain antibody 2.13 (VHH)
VHH: B5 VHH with M34L, G55A, S63N
notes: as for B6
EC50 (read off the curve) [6]: ~0.1 nM
EC50 (read off the curve) [8]: ~0.2 nM

From patent US20200392244A1 (CRESCENDO BIOLOGICS, published 2020)
